Experimental data from US20120009179A1 (Kyowa Kirin, published 2012).
Substitutions are numbered along the chain they refer to.

B1: anti-Aβ oligomer humanized antibody HV0LV2a (antibody, V domains shown)
VH: QVQLVQSGAEVKKPGASVKVSCKASGYTFTSYWMHWVRQAPGQGLEWMGEINPRNGGTNNNENFKRRVTITADTSTSTAYMELSSLRSEDTAVYYCARDGNYDPFAYWGQGTLVTVSS
VL: DIVMTQSPLSLPVTPGEPASISCRSSQSLVHSNGNTYLHWYLQKPGQSPKLLIYKVSNRFSGVPDRFSGSGSGTDFTLKISRVEAEDVGVYFCSQSTHVPPYTFGQGTKLEIK
notes: also called 6E4HV0 + LV2a
B2: anti-Aβ oligomer humanized antibody HV12LV4 (antibody, V domains shown)
VH: QVQLVQSGAEVVKPGASVKLSCKASGYTFTSYWMHWVKLAPGQGFEWIGEINPRNGGTNNNENFKRKATLTVDKSTSTAYMELSSLRSEDTAVYYCTRDGNYDPFAYWGQGTLVTVSS
VL: B1 VL with I2V, P15L
B3: anti-Aβ oligomer humanized antibody HV0LV4 (antibody, V domains shown)
VH: B1 VH
VL: B1 VL with I2V, P15L
notes: also called 6E4HV0 + LV4
B4: anti-Aβ oligomer humanized antibody HV0LV0 (antibody, V domains shown)
VH: B1 VH
VL: B1 VL with K50Q, F92Y
notes: Whole humanized antibody expressed from vector pKANTEX93 (WO 97/10354) with human constant regions; Produced in FUT8 knockout CHO/DG44 cells (no core fucose); also called 6E4HV0 + 6E4LV0

What was measured:
[1] = molecular target: T1, Aβ oligomers prepared from Amyloid β-protein, Human 1-42 peptide (human, UniProt P05067 672-713); experiment: SPR (Biacore T100), Aβ oligomers amine-coupled on CM5 chip, antibody injected, Bivalent Analyte model (kd1/ka1)
T1 construct: domain: Amyloid β-protein, Human 1-42 peptide; Non-covalent oligomer of synthetic Aβ1-42; Immobilized on a CM5 chip by amine coupling; also called amyloid β protein oligomer
T1 sequence (P05067 672-713 limits assumed): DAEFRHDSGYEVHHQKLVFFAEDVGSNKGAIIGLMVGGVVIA
Procedure: (§1) All the following operations were performed using Biocore T100 (manufactured by GE Healthcare Bio-sciences). The Aβ oligomers obtained in (1) of Example 2 were immobilized to the CM5 sensor chip (GE Healthcare Bio-sciences) using the amine coupling method.
(§2) Onto the chip to which the Aβ oligomers were immobilized for measurement samples prepared to have 8 levels of density by diluting from 30 μg/mL by doubling dilution in a stepwise manner (HV0LV0, HV0LV2a, HV0LV4 and HV12LV4) was sequentially injected and measured in the order from the lower density based on the automatic program of the multi-kinetics.
(§3) Using the analysis software attached to the device, Biacore T100 Evaluation software (manufactured by Biacore Life Science), analysis was carried out with the Bivalent Analyte model to calculate the binding rate constant ka and the dissociation rate constant kd of each of the antibody against Aβ oligomers.

[2] = molecular target: T1, Aβ oligomers prepared from Amyloid …; experiment: SPR (Biacore T100), Aβ oligomers amine-coupled on CM5 chip, antibody injected, Bivalent Analyte model (ka1)
Procedure: as §1, §2, §3

[3] = molecular target: T1, Aβ oligomers prepared from Amyloid …; experiment: SPR (Biacore T100), Aβ oligomers amine-coupled on CM5 chip, antibody injected, Bivalent Analyte model (kd1)
Procedure: as §1, §2, §3

[4] = molecular target: T2, Aβ monomers prepared from Biotin-beta-Amyloid, Human 1-40 (human, UniProt P05067 672-711, Biotin (position not stated; printed as "Biotin-beta-Amyloid, Human 1-40")); experiment: SPR (Biacore T100), biotin-Aβ1-40 monomers captured on SA chip, antibody injected
T2 construct: domain: beta-Amyloid, Human 1-40; Captured on an SA sensor chip through biotin; also called amyloid β protein monomer
T2 sequence (P05067 672-711 limits assumed): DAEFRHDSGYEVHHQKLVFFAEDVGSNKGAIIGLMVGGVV
Procedure: In order to analyze the binding activity of the respective anti-Aβ oligomer humanized antibodies (HV0LV0, HV0LV2a, HV0LV4 and HV12LV4) against Aβ monomers, the binding activity was measured in the same manner as in (1) of this Example. In addition, the binding activity of anti-Aβ antibody 6E10 (manufactured by CONVANCE) was measured as a control antibody.
The Aβ monomers obtained in (2) of Example (2) were immobilized to the SA sensor chip (manufactured by GE Healthcare Bio-sciences) by the biotin capturing method. Onto the chip to which the Aβ monomers were immobilized, samples for measurement, which were prepared to have 5 levels of density by diluting from 30 μg/mL by doubling dilution in a stepwise manner (6E10, HV0LV0, HV0LV2a, HV0LV4 and HV12LV4), were sequentially injected and measured in the order from the lower density based on the automatic program of the multi-kinetics mode.

Binder	Kd [1] [nM]	kon [2] [M⁻¹ s⁻¹]	koff [3] [s⁻¹]	binding result [4]
B1	61	6400	0.00039	no binding (tested: 30 µg/mL highest of 5 two-fold dilutions)
B2	300	2700	0.00081	no binding (tested: 30 µg/mL highest of 5 two-fold dilutions)
B3	71	7000	0.0005	no binding (tested: 30 µg/mL highest of 5 two-fold dilutions)
B4	40	17000	0.00069	no binding (tested: 30 µg/mL highest of 5 two-fold dilutions)
